Reference: patent US6387643B1, “Human platelet heparanase polypeptides, polynucleotide molecules that encode them, and methods for the identification of compounds that alter heparanase activity” (Pharmacia and Upjohn Company, priority 1998, dated 2002)

Experiments:
platelets = details: 1 U/ml thrombin; cited from earlier work
^35S-HSPG (>70 K) = experiment: Heparanase activity, Conventional Assay (degradation of 35S-HSPG, 30,000 MW cut-off filter); format: biochemical, mice
Description: The pH optimum of the purified heparanase was determined by conducting the assay described in Example 2 (the Conventional Assay) in the pH range of 3.5 to 8.0, using a citrate buffer (pH 3.5-6.0), citrate-phosphate buffer (pH 6.5-7.0), and phosphate buffer (pH 7.5-8). Heparanase was active between pH 5.0 and 8.0, with the optimum pH at 5.8.
^35S-HSPG (>70 K) was prepared from mice bearing a basement membrane tumor that overproduces HSPG (EHS tumor), using modifications of the method of Ledbetter et al. (Biochemistry 26: 988-995 (1987)). Briefly, the radiolabeled HSPG was prepared by injecting C57BL mice bearing the EHS tumor with sodium [^35S] sulfate (0.5 mCi/mouse) 18 h before harvesting the tumor. […]
^35S-HSPG was isolated from the Buffer B supernatant by sequential chromatography on anion exchange and gel filtration columns. […] Fractions were sampled for radioactivity, and those containing the ^35SO4 label that eluted from the DEAE-Sephacel between 0.4 M and 0.8 M NaCl were pooled. […] Fractions were sampled for radioactivity, and those containing the ^35SO4 label that elutes with a molecular weight 70 kDa were pooled. […]
Heparanase activity from platelets or column fractions was detected by its ability to digest the 70 kDa ^35S-HSPG to produce lower molecular weight products. not retained by a 30,000 MW cut-off membrane. […]

In the case of thrombin, the “heparanase activity released from platelets” value (platelets) is given as 100%.

B1: purified heparanase: Human platelet heparanase: non-covalently associated 56 kDa (residues 145-530) and 8 kDa (residues 23-96) polypeptides of SEQ ID NO:2 (protein)
chain: QDVVDLDFFTQEPLHLVSPSFLSVTIDANLATDPRFLILLGSPKLRTLARGLSPAYLRFGGTKTDFLIFDPKKESTFEERSYWQSQVNQDICKYGSIPPDVEEKLRLEWPYQEQLLLREHYQKKFKNSTYSRSSVDVLYTFANCSGLDLIFGLNALLRTADLQWNSSNAQLLLDYCSSKGYNISWELGNEPNSFLKKADIFINGSQLGEDFIQLHKLLRKSTFKNAKLYGPDVGQPRRKTAKMLKSFLKAGGEVIDSVTWHHYYLNGRTATKEDFLNPDVLDIFISSVQKVFQVVESTRPGKKVWLGETSSAYGGGAPLLSDTFAAGFMWLDKLGLSARMGIEVVMRQVFFGAGNYHLVDENFDPLPDYWLSLLFKKLVGTKVLMASVQGSKRRKLRVYLHCTNTDNPRYKEGDLTLYAINLHNVTKYLRLPYPFSNKQVDKYLLRPLGPHGLLSKSVQLNGLTLKMVDDQTLPPLMEKPLRPGSSLGLPAFSYSFFVIRNAKVAACI
modifications: two chains: residues 145-530 and 23-96
In the case of B1, the “optimum pH of heparanase activity” value (^35S-HSPG (>70 K); pH range 3.5 to 8.0, citrate, citrate-phosphate and phosphate buffers) is reported as 5.8.

B2: Pro-heparanase: 508 residue protein, amino acid residues 23 to 530 of SEQ ID NO: 2, precursor of heparanase (protein)
chain: QDVVDLDFFTQEPLHLVSPSFLSVTIDANLATDPRFLILLGSPKLRTLARGLSPAYLRFGGTKTDFLIFDPKKESTFEERSYWQSQVNQDICKYGSIPPDVEEKLRLEWPYQEQLLLREHYQKKFKNSTYSRSSVDVLYTFANCSGLDLIFGLNALLRTADLQWNSSNAQLLLDYCSSKGYNISWELGNEPNSFLKKADIFINGSQLGEDFIQLHKLLRKSTFKNAKLYGPDVGQPRRKTAKMLKSFLKAGGEVIDSVTWHHYYLNGRTATKEDFLNPDVLDIFISSVQKVFQVVESTRPGKKVWLGETSSAYGGGAPLLSDTFAAGFMWLDKLGLSARMGIEVVMRQVFFGAGNYHLVDENFDPLPDYWLSLLFKKLVGTKVLMASVQGSKRRKLRVYLHCTNTDNPRYKEGDLTLYAINLHNVTKYLRLPYPFSNKQVDKYLLRPLGPHGLLSKSVQLNGLTLKMVDDQTLPPLMEKPLRPGSSLGLPAFSYSFFVIRNAKVAACI
With B2 the catalytic activity (^35S-HSPG (>70 K); before cleavage of the Glu96-Ser97 and Gln144-Lys145 bonds) was “not catalytically active”.
